Biological target: recombinant human PD-1 dimer expressed with a C-terminal mouse IgG2a Fc tag (hPD-1-mFc) (human)
Test: competition ELISA, 1.5 nM hPD-1-mFc, coated hPD-L1-hFc; NBI

Sequence of recombinant human PD-1 dimer expressed with a C-terminal mouse IgG2a Fc tag (hPD-1-mFc) (human) (chain, as listed by the source limits assumed): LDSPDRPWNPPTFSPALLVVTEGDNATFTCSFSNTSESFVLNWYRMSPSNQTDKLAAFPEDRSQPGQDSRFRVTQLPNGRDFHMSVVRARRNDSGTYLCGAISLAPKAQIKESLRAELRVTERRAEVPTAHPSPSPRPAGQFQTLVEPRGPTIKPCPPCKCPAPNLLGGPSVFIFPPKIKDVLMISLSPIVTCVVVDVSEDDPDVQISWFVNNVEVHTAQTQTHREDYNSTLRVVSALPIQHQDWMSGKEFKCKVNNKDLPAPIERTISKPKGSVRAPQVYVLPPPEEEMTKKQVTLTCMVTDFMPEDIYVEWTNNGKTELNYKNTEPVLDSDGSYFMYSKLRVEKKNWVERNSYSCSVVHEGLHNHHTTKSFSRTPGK

% blocking at 200 nM antibody: -18%
Substance: Isotype control 2 (antibody)

Source: patent publication US20240382677A1
